Reference: doi:10.1101/620385
pKd: −log10 of the molar value.

Legend:
[1] = target: nucleosome core particle with histone H3 phosphorylated at Thr3 (human | Xenopus laevis) (UniProt P84233); assay: SPR
[2] = target: unmodified nucleosome core particle (human | Xenopus laevis); assay: SPR

Substance | pKd [1] | pKd [2] | fold reduction in binding affinity against CPC LM [1] [fold] | fold reduction in binding affinity against CPC LM [2] [fold]
CPC localisation module (Borealin-Survivin-INCENP 1-58) (from UniProt Q53HL2;O15392;Q9NQS7) (complex) | 6.99 | 6.53 | – | –
CPC localisation module containing Borealin 10-end (from UniProt Q53HL2;O15392;Q9NQS7) (complex) | – | – | 3 | 3
